We go through two molecules from PMC4451422, “Catch me if you can: a biotinylated proteoliposome affinity assay for the investigation of assembly of the MexA-MexB-OprM efflux pump from Pseudomonas aeruginosa” (Frontiers in Microbiology, 2015).

Assay in all cases: pull-down; MagStrep (streptavidin) magnetic beads sediment biotin-lipid proteoliposomes with MexB or MexAB; OprM in separate proteoliposomes; non-energized: 25 mM Hepes pH7, 100 mM K2SO4, 2 mM MgSO4; 20 min at room temperature; pellets on SDS-PAGE, Coomassie
Holding throughout (details): both partners purified

Assay [1] addresses T1, MexB (Pseudomonas aeruginosa, UniProt P52002 1-1046).
T1 construct: MexB, RND inner membrane transporter of the MexA-MexB-OprM efflux pump, Pseudomonas aeruginosa; Purified by the protocol of Mokhonov et al., 2005 with minor modifications; also called MexB alone; RND pump
T1 sequence: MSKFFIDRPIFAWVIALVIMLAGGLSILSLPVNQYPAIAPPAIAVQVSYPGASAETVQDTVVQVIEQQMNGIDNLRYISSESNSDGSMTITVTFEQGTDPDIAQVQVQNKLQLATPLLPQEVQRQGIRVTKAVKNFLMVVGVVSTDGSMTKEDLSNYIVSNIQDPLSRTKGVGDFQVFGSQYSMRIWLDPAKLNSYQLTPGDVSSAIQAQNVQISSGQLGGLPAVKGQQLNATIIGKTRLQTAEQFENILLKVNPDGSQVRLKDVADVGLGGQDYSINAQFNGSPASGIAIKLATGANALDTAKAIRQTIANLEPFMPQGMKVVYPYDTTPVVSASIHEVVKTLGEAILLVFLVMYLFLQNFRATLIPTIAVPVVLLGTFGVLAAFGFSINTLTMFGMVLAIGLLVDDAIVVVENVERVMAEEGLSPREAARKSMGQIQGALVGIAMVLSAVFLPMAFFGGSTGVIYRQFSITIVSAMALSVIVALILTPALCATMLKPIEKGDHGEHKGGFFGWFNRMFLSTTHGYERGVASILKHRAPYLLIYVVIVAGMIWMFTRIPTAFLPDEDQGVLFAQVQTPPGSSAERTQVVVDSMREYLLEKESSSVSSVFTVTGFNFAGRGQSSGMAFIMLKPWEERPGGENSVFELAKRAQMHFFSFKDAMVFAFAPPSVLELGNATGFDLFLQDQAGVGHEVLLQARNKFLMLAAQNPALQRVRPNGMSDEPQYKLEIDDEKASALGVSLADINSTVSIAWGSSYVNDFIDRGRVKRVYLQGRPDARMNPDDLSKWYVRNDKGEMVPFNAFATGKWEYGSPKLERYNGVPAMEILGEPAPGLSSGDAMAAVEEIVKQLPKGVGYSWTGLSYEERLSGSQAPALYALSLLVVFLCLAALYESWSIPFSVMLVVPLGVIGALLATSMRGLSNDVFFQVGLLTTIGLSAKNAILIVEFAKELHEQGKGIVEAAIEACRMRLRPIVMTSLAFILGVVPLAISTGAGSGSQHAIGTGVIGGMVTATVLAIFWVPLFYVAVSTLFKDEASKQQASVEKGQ

The target in assay [2] is T2, MexAB: MexA (palmitoylated) and MexB reconstituted together in biotinylated proteoliposomes (Pseudomonas aeruginosa, UniProt P52477 24-383; P52002 1-1046, palmitoylated (lipid anchor); residue not stated).
T2 construct: MexA, Pseudomonas aeruginosa, palmitoylated version; as m1; MexB, Pseudomonas aeruginosa; as m3; also called MexAB proteoliposomes; MexA and MexB; source: each protein from C43 ΔAcrB strain, purified; reconstituted together in proteoliposomes with biotinylated lipids
T2 sequence 1: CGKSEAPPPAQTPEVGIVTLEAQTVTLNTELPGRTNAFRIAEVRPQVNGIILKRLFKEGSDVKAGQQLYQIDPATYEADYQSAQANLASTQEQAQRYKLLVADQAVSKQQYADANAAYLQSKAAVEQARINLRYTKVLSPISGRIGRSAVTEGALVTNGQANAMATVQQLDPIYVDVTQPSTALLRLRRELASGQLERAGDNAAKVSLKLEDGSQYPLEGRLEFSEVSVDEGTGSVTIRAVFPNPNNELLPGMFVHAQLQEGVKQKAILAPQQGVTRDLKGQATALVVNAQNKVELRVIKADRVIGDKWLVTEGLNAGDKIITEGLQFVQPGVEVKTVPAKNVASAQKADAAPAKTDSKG
T2 sequence 2: T1 sequence

The target in assay [3] is T3, MexAB_(D407N): MexA (palmitoylated) and the inactive MexB D407N mutant reconstituted together in biotinylated … (Pseudomonas aeruginosa, UniProt P52477 24-383; P52002 1-1046, D407N, palmitoylated (lipid anchor); residue not stated).
T3 construct: MexA, Pseudomonas aeruginosa, palmitoylated version; as m1; also called MexA and MexB_(D407N); source: reconstituted together in proteoliposomes with biotinylated lipids
T3 sequence (looked up) 1: T2 sequence 1
T3 sequence (looked up) 2: T1 sequence with D407N

Numbering of substitutions follows the chain as printed.

B1: MexAnp, truncated "cysteine-less" form of MexA without its first 24 residues (non-palmitoylated, soluble) (domain or fragment)
chain: GKSEAPPPAQTPEVGIVTLEAQTVTLNTELPGRTNAFRIAEVRPQVNGIILKRLFKEGSDVKAGQQLYQIDPATYEADYQSAQANLASTQEQAQRYKLLVADQAVSKQQYADANAAYLQSKAAVEQARINLRYTKVLSPISGRIGRSAVTEGALVTNGQANAMATVQQLDPIYVDVTQPSTALLRLRRELASGQLERAGDNAAKVSLKLEDGSQYPLEGRLEFSEVSVDEGTGSVTIRAVFPNPNNELLPGMFVHAQLQEGVKQKAILAPQQGVTRDLKGQATALVVNAQNKVELRVIKADRVIGDKWLVTEGLNAGDKIITEGLQFVQPGVEVKTVPAKNVASAQKADAAPAKTDSKG
notes: MexA, Pseudomonas aeruginosa, without its first 24 residues; non-palmitoylated, soluble; no point mutation is printed; also called soluble version of MexA; soluble MexA; source: generated in the laboratory, produced and purified
For B1, the binding result in assay [1] is given as “binds”.

B2: OprM (natural protein)
chain: CSLIPDYQRPEAPVAAAYPQGQAYGQNTGAAAVPAADIGWREFFRDPQLQQLIGVALENNRDLRVAALNVEAFRAQYRIQRADLFPRIGVDGSGTRQRLPGDLSTTGSPAISSQYGVTLGTTAWELDLFGRLRSLRDQALEQYLATEQAQRSAQTTLVASVATAYLTLKADQAQLQLTKDTLGTYQKSFDLTQRSYDVGVASALDLRQAQTAVEGARATLAQYTRLVAQDQNALVLLLGSGIPANLPQGLGLDQTLLTEVPAGLPSDLLQRRPDILEAEHQLMAANASIGAARAAFFPSISLTANAGTMSRQLSGLFDAGSGSWLFQPSINLPIFTAGSLRASLDYAKIQKDINVAQYEKAIQTAFQEVADGLAARGTFTEQLQAQRDLVKASDEYYQLADKRYRTGVDNYLTLLDAQRSLFTAQQQLITDRLNQLTSEVNLYKALGGGWNQQTVTQQQTAKKEDPQA
notes: OprM, outer membrane channel of the MexA-MexB-OprM efflux pump, Pseudomonas aeruginosa; Purified by the protocol of Phan et al., 2010 with minor modifications; also called OMF; OprM proteoliposomes
As to B2, the binding result in assay [2] and in assay [3] was “binds” in each case.
